Where no end group is shown, it is not given here.
T1: PS2-loop D bait (LexA fusion, divergent region of the PS2 loop) (human, also: N-terminal LexA (pEG202) fusion, limits and linker not given here)
T1 construct: Range 301-319 is inferred from loop B being divided into loop C (31 aa) and loop D; not shown: LexA moiety of pEG202, NH2-terminal of the bait
T1 chain: TVGMAKLDPSSQGALQLPY

B1: calmyrin (calcium-binding myristoylated protein with homology to calcineurin), yeast two-hybrid prey in pJG4-5 (clone 7) (other, not shown: large carriers)
chain: MGGSGSRLSKELLAEYQDLTFLTKQEILLAHRRFCELLPQEQRTVESSLRAQVPFEQILSLPELKANPFKERICRVFSTSPAKDSLSFEDFLDLLSVFSDTATPDIKSHYAFRIFDFDDDGTLNREDLSRLVNCLTGEGEDTRLSASEMKQLIDNILEESDIDRDGTINLSEFQHVISRSPDFASSFKIVL
notes: Prey fusion in yeast; also called CIB; KIP
B2: untagged full-length wild type calmyrin expressed in HeLa cells (other)
chain: GGSGSRLSKELLAEYQDLTFLTKQEILLAHRRFCELLPQEQRTVESSLRAQVPFEQILSLPELKANPFKERICRVFSTSPAKDSLSFEDFLDLLSVFSDTATPDIKSHYAFRIFDFDDDGTLNREDLSRLVNCLTGEGEDTRLSASEMKQLIDNILEESDIDRDGTINLSEFQHVISRSPDFASSFKIVL
modifications: myristoylated (NH2 consensus myristoylation site; 3H-myristic acid incorporated)

Columns and labels:
[1] = target: T2, PS2-C term bait (LexA fusion, COOH-terminal sequence of PS2 downstream of the eighth TMD) (human); experiment: yeast two-hybrid liquid beta-galactosidase assay
T2 construct: also called PS2-COOH-terminal construct; PS2-COOH-terminal domain; not shown: LexA moiety of pEG202, NH2-terminal of the bait
T2 sequence (chain, as listed by the source limits assumed): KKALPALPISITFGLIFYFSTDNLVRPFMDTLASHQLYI
Method: (§1) All PCR-amplified regions were digested with EcoRI and XhoI, cloned into pEG202, and confirmed by DNA sequencing. These various baits were transformed into EGY48 and found by immunoblotting of yeast extracts to express appropriately sized lexA-PS fusion polypeptides. Three isolates from yeast transformed with the calmyrin in pJG4-5 (clone 7) plus each PS bait or the control lamin bait were assayed for β-galactosidase enzyme activity in liquid cultures using ONPG (O-nitrophenyl β-D-galactopyranoside) as a substrate (Reynolds and Lundblad, 1989).
To quantify the binding specificity of calmyrin to the PS2-loop and to determine if this protein also interacts with the PS1 loop which is 45% identical in amino acid sequence, the galactosidase activity was measured in yeast liquid assays.

[2] = target: T3, PS1-loop C bait (LexA fusion, region of PS1 corresponding to PS2-loop C) (human); experiment: yeast two-hybrid liquid assay, PS1-loop C against PS2-loop C
T3 construct: not shown: LexA moiety of pEG202, NH2-terminal of the bait

[3] = target: T4, PS1-loop C bait with T281P, L282I (human); experiment: yeast two-hybrid liquid assay, mutated PS1-loop C bait against the T281P bait
T4 construct: Range inferred as for PS1-loop C; not shown: LexA moiety of pEG202 (N-terminal fusion partner) and the vector-encoded junction residues
Method: (§2) Three isolates from yeast transformed with the calmyrin in pJG4-5 (clone 7) plus each PS bait or the control lamin bait were assayed for β-galactosidase enzyme activity in liquid cultures using ONPG (O-nitrophenyl β-D-galactopyranoside) as a substrate (Reynolds and Lundblad, 1989).
(§3) Further investigation was performed to determine how these three divergent residues influenced calmyrin interaction with the PS-loop C region in yeast two-hybrid assays. […] When both proline and alanine were present together (T281P, T291A) they increased binding substantially, producing an approximately twofold higher level of binding compared with the wild-type PS2-loop bait.

[4] = target: T5, PS1-loop C bait with L282I, T291A (human); experiment: yeast two-hybrid liquid assay, mutated PS1-loop C bait against the T291A bait
T5 construct: Range inferred as for PS1-loop C; not shown: LexA moiety of pEG202 (N-terminal fusion partner) and the vector-encoded junction residues
Method: as §2, §3

[5] = target: T6, PS1-loop C bait with T281P (human); experiment: yeast two-hybrid liquid assay, mutated PS1-loop C bait against PS2-loop C bait
T6 construct: Range inferred as for PS1-loop C; not shown: LexA moiety of pEG202 (N-terminal fusion partner) and the vector-encoded junction residues
Method: as §2, §3

[6] = target: T7, PS1-loop C bait with T291A (human); experiment: as above
T7 construct: Range inferred as for PS1-loop C; not shown: LexA moiety of pEG202 (N-terminal fusion partner) and the vector-encoded junction residues
Method: as §2, §3

[7] = target: T8, PS1-loop C bait with T281P, T291A (human); experiment: as above
T8 construct: Range inferred as for PS1-loop C; also called (T281P, T291A) double mutant; not shown: LexA moiety of pEG202 (N-terminal fusion partner) and the vector-encoded junction residues
Method: as §2, §3

[8] = target: T9, PS1-loop B bait (LexA fusion, region of PS1 corresponding to PS2-loop B) (human, UniProt P49768 264-315); experiment: yeast two-hybrid liquid beta-galactosidase assay (ONPG), LexA bait and calmyrin prey
T9 construct: not shown: LexA moiety of pEG202, NH2-terminal of the bait
Method: as §1
(§4) To further map the binding site of calmyrin within the PS2-loop, two new baits were constructed which divided the loop into a conserved portion, loop C (28 out of the 31 amino acids are identical to PS1 ), and a divergent region, loop D (only 33% identity to PS1; FIG. 1).

[9] = target: T3, PS1-loop C bait (LexA fusion, region of …); experiment: as above
Method: as §1, §4

[10] = target: T10, PS2-loop B bait (LexA fusion, first 50 amino acids of the PS2 loop) (human, UniProt O88777 270-319 (rat entry)); experiment: as above
T10 construct: Range 270-319 follows from 'residues 270-361' and 'the first 50 amino acids of the PS2 loop'; also called PS2-loop bait; loop bait; not shown: LexA moiety of the pEG202 LexA fusion plasmid, NH2-terminal of the bait
T10 sequence (O88777 270-319 limits assumed): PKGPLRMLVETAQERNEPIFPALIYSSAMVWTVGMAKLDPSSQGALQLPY
Method: as §1, §4

[11] = target: T11, PS2-loop C bait (LexA fusion, conserved 31-amino acid loop region of PS2) (human); experiment: as above
T11 construct: Range 270-300 follows from loop start 270 and '31 amino acids'; also called wild-type PS2-loop bait; not shown: LexA moiety of pEG202, NH2-terminal of the bait
Method: as §1, §4

[12] = target: T1, PS2-loop D bait (LexA fusion, divergent …); experiment: as above
Method: as §1, §4

[13] = target: full-length human presenilin 2 (PS2) expressed in HeLa cells (human, UniProt P49810 1-448); experiment: cell-based or functional assay

Binder	binding result [1]	interaction strength relative to the PS2-loop region [2]	fold binding compared with the T281P bait [3]	binding result [4]	interaction relative to the PS2 level [5]	binding relative to the PS2 level [6]	fold level of binding compared with the wild-type PS2-loop bait [7]	fold increase in beta-galactosidase activity over lamin B control [8]	fold increase in beta-galactosidase activity over control [9]	fold increase in beta-galactosidase activity over lamin B control [10]	fold increase in beta-galactosidase activity over control [11]	fold increase in beta-galactosidase activity over control [12]	cell death (floating HeLa cells), fold over control, on coexpression [13]
B1	no binding	< 0.1 fraction of the PS2-loop strength	1.7 fold	binds	~0.5 fraction of the PS2 level	0.33 fraction of the PS2 level	~2 fold	1.9 fold	5.8 fold	8.5 fold	74 fold	2.2 fold	
B2													5.9 fold
